Reference: patent US6500431B1, “Inhibitors of angiogenesis and tumor growth” (University of Southern California, priority 1998, dated 2002)
Entries after “also recorded” stand apart in the source; their conditions may differ.

Legend:
[1] = tested on: endothelial cells (HUVEC); assay: Growth inhibition of endothelial cells; assay type: cell-based
Experimental: FIG. 1D: Activity of n-terminus decapeptide (DVCQDCIQMV; SEQ ID NO 21).
FIG. 1E: Activity of N-terminus pentapeptide (DVCQC; SEQ ID NO: 28).
By SDS-PAGE, the bacterial product was smaller than the eukaryotic protein. Because prokaryotically expressed proteins are not glycosylated, the difference in molecular weights probably represents the presence of carbohydrate in the eukaryotic protein. Recombinant proteins were then tested in KS, endothelial and control cell lines. Activity was found only in KS cell lines and endothelial cells.

KS Y-1 cells = assay: KS cell migration assay, fibronectin-coated transwell; assay type: cell-based; details: chemotaxis induced by VEGF or bFGF
Experimental: The assays were done in double chamber wells separated by […] membrane. Chemotaxis was induced by bFGF (25 ng/mL) in the lower chamber. Endothelial cells or KS cells (5×10^4/mL) were placed in the upper chamber in the presence and absence of test polypeptides. Taxol at 10 ng/mL was used as a known inhibitor of migration. Cell migration across the membrane was quantitated after an overnight incubation.
Angiogenesis is mediated by complex biochemical processes including degradation of the basement membrane under existing blood vessel endothelial cells, followed by proliferation and migration of endothelial cells, followed by formation of capillary loops, and recruitment of vascular smooth muscle cells to encase the newly formed vessels and provide stability. KS and endothelial cell migration in the presence of Saposin B was studied in transwell culture plates with 8 μm pore membranes (Costar, Cambridge, Mass.).
Briefly, wells were coated with fibronectin (25 μg/mL) overnight, and endothelial cells or KS cells were plated in the upper chamber with 100 μL of DMEM/0.4% FCS. 500 μL of DMEM/0.4% FCS was added to the lower chamber and incubated at 37° C. for one hour. The test polypeptides, at various concentrations, were added to the upper chamber, and chemotactic agents (VEGF or bFGF at 20 ng/mL) were added to the lower cell-culture chambers. The plates were incubated for 5 hr at 37° C. and the cells crossing the fibronectin-coated membrane were counted after wiping the cells off the membrane in the upper chamber with a cotton swab.
The cells that traversed the membrane were fixed with Diff-Quik stain according to the manufacturer's instruction (Dade Diagnostics Inc., Aguada, PR). The cells were counted under a microscope at 320× in four randomly selected fields. The experiments were done in duplicate and repeated at least three times.

[2] = tested on: chicken allantoic membrane (CAM); assay: Chicken allantoic membrane (CAM) angiogenesis assay; assay type: in vivo; details: induced by VEGF or bFGF; 48 hours
Experimental: In order to test anti-angiogenic activity, chicken allantoic membrane (CAM) assays were performed with recombinant Saposin B. Ten day old fertilized chicken eggs were prepared for assay by creating a window in the egg shell, and placing filter paper discs saturated with VEGF or bFGF as positive controls, test compounds, or carrier buffer (negative controls) on the allantoic membrane. The membranes were harvested after 48 hours and analyzed using an Olympus stereomicroscope. The number of branching blood vessels that infiltrated under the discs were counted and photographed. Eight CAMs were studied for test group, and the experiments were repeated at least twice.

[3] = tested on: Lewis lung carcinoma, melanoma (B16), T-cell lymphoma (EL-4), KS Y-1; assay: Syngeneic tumors in C57BL/6 mice, KS Y-1 in nude mice; assay type: in vivo; details: 2.5 mg/kg the day following implantation; two weeks
Experimental: FIG. 4: Inhibition of tumor growth in mice. C57BL/6 mice were implanted with Lewis lung carcinoma, melanoma (B16), and T-cell lymphoma (EL4). KS Y-1 was implanted in nude mice as a positive control. One day after implantation 2.5 mg/kg of Saposin B was injected into the mice subcutaneously.
To determine whether this anti-tumor effect was reproducible with different classes of syngeneic tumors, C57BL/6 mice were implanted with Lewis lung carcinoma, melanoma (B16), and T-cell lymphoma (EL-4) cell lines. KS Y-1 was implanted into nude mice for a positive control. The day following tumor implantation, 2.5 mg/kg of Saposin B was administered intraperitoneally. Tumor size was measured three times a week for two weeks at which time the mice were sacrificed for analysis. […] See, FIG. 4

B1: Saposin B: polypeptide fragment of Prosaposin (positions 190 to 269), SEQ ID NO:2; recombinantly expressed (protein)
chain: GDVCQDCIQMVTDIQTAVRTNSTFVQALVEHVKEECDRLGPGMADICKNYISQYSEIAIQMMMHMQPKEICALVGFCDEVK
growth inhibition of endothelial cells ([1]; FIG. 1, 1D, 1E): dose dependent growth inhibition
growth inhibition of proliferating versus quiescent endothelial cells (HUVEC) ([1]; FIG. 1B): Only proliferating and not quiescent endothelial cells (HUVEC) show dose dependent growth inhibition
inhibition of KS cell migration (KS Y-1 cells): compete inhibition of cell migration
angiogenesis (number of blood vessel branches) in CAMs [2]: effectively blocked angiogenesis; also recorded: inhibited by Saposin B in a dose-dependent fashion
tumor growth [3]: profound inhibition of tumor growth
